Measured values reported in patent US20240209076A1 (KODIAK SCIENCES, published 2024).

B1: anti-IL-6 antibody, heavy chain S35L, G66D / light chain M32L, M50D, N52S, M88Q (antibody, IgG1, V domains shown)
VH: EVQLVESGGGLVQPGGSLRLSCAASGFTFSPFAMLWVRQAPGKGLEWVAKISPGGSWTYYSDTVTDRFTFSLDTSKSTAYLQMNSLRAEDTAVYYCARQLWGYYALDIWGQGTLVTVSS
VL: DIQLTQSPSSLSASVGDRVTITCSASISVSYLYWYQQKPGKAPKLLIYDDSSLASGVPSRFSGSGSGTDFTLTISSLQPEDFATYYCQQWSGYPYTFGQGTKVEIK
notes: Full IgG1 (Expi293); VL = variant III
B2: anti-IL-6 antibody, heavy chain S35P, G66D / light chain M32L, M50D, N52S, M88Q (antibody, IgG1, V domains shown)
VH: EVQLVESGGGLVQPGGSLRLSCAASGFTFSPFAMPWVRQAPGKGLEWVAKISPGGSWTYYSDTVTDRFTFSLDTSKSTAYLQMNSLRAEDTAVYYCARQLWGYYALDIWGQGTLVTVSS
VL: DIQLTQSPSSLSASVGDRVTITCSASISVSYLYWYQQKPGKAPKLLIYDDSSLASGVPSRFSGSGSGTDFTLTISSLQPEDFATYYCQQWSGYPYTFGQGTKVEIK
notes: as for B1
B3: anti-IL-6 antibody, heavy chain S35Q, G66D / light chain M32L, M50D, N52S, M88Q (antibody, IgG1, V domains shown)
VH: EVQLVESGGGLVQPGGSLRLSCAASGFTFSPFAMQWVRQAPGKGLEWVAKISPGGSWTYYSDTVTDRFTFSLDTSKSTAYLQMNSLRAEDTAVYYCARQLWGYYALDIWGQGTLVTVSS
VL: DIQLTQSPSSLSASVGDRVTITCSASISVSYLYWYQQKPGKAPKLLIYDDSSLASGVPSRFSGSGSGTDFTLTISSLQPEDFATYYCQQWSGYPYTFGQGTKVEIK
notes: as for B1
B4: anti-IL-6 antibody, heavy chain S35T, G66D / light chain M32L, M50D, N52S, M88Q (antibody, IgG1, V domains shown)
VH: EVQLVESGGGLVQPGGSLRLSCAASGFTFSPFAMTWVRQAPGKGLEWVAKISPGGSWTYYSDTVTDRFTFSLDTSKSTAYLQMNSLRAEDTAVYYCARQLWGYYALDIWGQGTLVTVSS
VL: DIQLTQSPSSLSASVGDRVTITCSASISVSYLYWYQQKPGKAPKLLIYDDSSLASGVPSRFSGSGSGTDFTLTISSLQPEDFATYYCQQWSGYPYTFGQGTKVEIK
notes: as for B1
B5: anti-IL-6 antibody, heavy chain S35V, G66D / light chain M32L, M50D, N52S, M88Q (antibody, IgG1, V domains shown)
VH: EVQLVESGGGLVQPGGSLRLSCAASGFTFSPFAMVWVRQAPGKGLEWVAKISPGGSWTYYSDTVTDRFTFSLDTSKSTAYLQMNSLRAEDTAVYYCARQLWGYYALDIWGQGTLVTVSS
VL: DIQLTQSPSSLSASVGDRVTITCSASISVSYLYWYQQKPGKAPKLLIYDDSSLASGVPSRFSGSGSGTDFTLTISSLQPEDFATYYCQQWSGYPYTFGQGTKVEIK
notes: as for B1
B6: anti-IL-6 antibody, heavy chain S35W, G66D / light chain M32L, M50D, N52S, M88Q (antibody, IgG1, V domains shown)
VH: EVQLVESGGGLVQPGGSLRLSCAASGFTFSPFAMWWVRQAPGKGLEWVAKISPGGSWTYYSDTVTDRFTFSLDTSKSTAYLQMNSLRAEDTAVYYCARQLWGYYALDIWGQGTLVTVSS
VL: DIQLTQSPSSLSASVGDRVTITCSASISVSYLYWYQQKPGKAPKLLIYDDSSLASGVPSRFSGSGSGTDFTLTISSLQPEDFATYYCQQWSGYPYTFGQGTKVEIK
notes: as for B1
B7: anti-IL-6 antibody, heavy chain S35Y, G66D / light chain M32L, M50D, N52S, M88Q (antibody, IgG1, V domains shown)
VH: EVQLVESGGGLVQPGGSLRLSCAASGFTFSPFAMYWVRQAPGKGLEWVAKISPGGSWTYYSDTVTDRFTFSLDTSKSTAYLQMNSLRAEDTAVYYCARQLWGYYALDIWGQGTLVTVSS
VL: DIQLTQSPSSLSASVGDRVTITCSASISVSYLYWYQQKPGKAPKLLIYDDSSLASGVPSRFSGSGSGTDFTLTISSLQPEDFATYYCQQWSGYPYTFGQGTKVEIK
notes: as for B1
B8: anti-IL-6 antibody, heavy chain T63A, G66D / light chain M32L, M50D, N52S, M88Q (antibody, IgG1, V domains shown)
VH: EVQLVESGGGLVQPGGSLRLSCAASGFTFSPFAMSWVRQAPGKGLEWVAKISPGGSWTYYSDAVTDRFTFSLDTSKSTAYLQMNSLRAEDTAVYYCARQLWGYYALDIWGQGTLVTVSS
VL: DIQLTQSPSSLSASVGDRVTITCSASISVSYLYWYQQKPGKAPKLLIYDDSSLASGVPSRFSGSGSGTDFTLTISSLQPEDFATYYCQQWSGYPYTFGQGTKVEIK
notes: as for B1
B9: anti-IL-6 antibody, heavy chain T63D, G66D / light chain M32L, M50D, N52S, M88Q (antibody, IgG1, V domains shown)
VH: EVQLVESGGGLVQPGGSLRLSCAASGFTFSPFAMSWVRQAPGKGLEWVAKISPGGSWTYYSDDVTDRFTFSLDTSKSTAYLQMNSLRAEDTAVYYCARQLWGYYALDIWGQGTLVTVSS
VL: DIQLTQSPSSLSASVGDRVTITCSASISVSYLYWYQQKPGKAPKLLIYDDSSLASGVPSRFSGSGSGTDFTLTISSLQPEDFATYYCQQWSGYPYTFGQGTKVEIK
notes: as for B1
B10: anti-IL-6 antibody, heavy chain T63F, G66D / light chain M32L, M50D, N52S, M88Q (antibody, IgG1, V domains shown)
VH: EVQLVESGGGLVQPGGSLRLSCAASGFTFSPFAMSWVRQAPGKGLEWVAKISPGGSWTYYSDFVTDRFTFSLDTSKSTAYLQMNSLRAEDTAVYYCARQLWGYYALDIWGQGTLVTVSS
VL: DIQLTQSPSSLSASVGDRVTITCSASISVSYLYWYQQKPGKAPKLLIYDDSSLASGVPSRFSGSGSGTDFTLTISSLQPEDFATYYCQQWSGYPYTFGQGTKVEIK
notes: as for B1
B11: anti-IL-6 antibody, heavy chain T63G, G66D / light chain M32L, M50D, N52S, M88Q (antibody, IgG1, V domains shown)
VH: EVQLVESGGGLVQPGGSLRLSCAASGFTFSPFAMSWVRQAPGKGLEWVAKISPGGSWTYYSDGVTDRFTFSLDTSKSTAYLQMNSLRAEDTAVYYCARQLWGYYALDIWGQGTLVTVSS
VL: DIQLTQSPSSLSASVGDRVTITCSASISVSYLYWYQQKPGKAPKLLIYDDSSLASGVPSRFSGSGSGTDFTLTISSLQPEDFATYYCQQWSGYPYTFGQGTKVEIK
notes: as for B1
B12: anti-IL-6 antibody, heavy chain T63H, G66D / light chain M32L, M50D, N52S, M88Q (antibody, IgG1, V domains shown)
VH: EVQLVESGGGLVQPGGSLRLSCAASGFTFSPFAMSWVRQAPGKGLEWVAKISPGGSWTYYSDHVTDRFTFSLDTSKSTAYLQMNSLRAEDTAVYYCARQLWGYYALDIWGQGTLVTVSS
VL: DIQLTQSPSSLSASVGDRVTITCSASISVSYLYWYQQKPGKAPKLLIYDDSSLASGVPSRFSGSGSGTDFTLTISSLQPEDFATYYCQQWSGYPYTFGQGTKVEIK
notes: as for B1
B13: anti-IL-6 antibody, heavy chain T63I, G66D / light chain M32L, M50D, N52S, M88Q (antibody, IgG1, V domains shown)
VH: EVQLVESGGGLVQPGGSLRLSCAASGFTFSPFAMSWVRQAPGKGLEWVAKISPGGSWTYYSDIVTDRFTFSLDTSKSTAYLQMNSLRAEDTAVYYCARQLWGYYALDIWGQGTLVTVSS
VL: DIQLTQSPSSLSASVGDRVTITCSASISVSYLYWYQQKPGKAPKLLIYDDSSLASGVPSRFSGSGSGTDFTLTISSLQPEDFATYYCQQWSGYPYTFGQGTKVEIK
notes: as for B1
B14: anti-IL-6 antibody, heavy chain T63L, G66D / light chain M32L, M50D, N52S, M88Q (antibody, IgG1, V domains shown)
VH: EVQLVESGGGLVQPGGSLRLSCAASGFTFSPFAMSWVRQAPGKGLEWVAKISPGGSWTYYSDLVTDRFTFSLDTSKSTAYLQMNSLRAEDTAVYYCARQLWGYYALDIWGQGTLVTVSS
VL: DIQLTQSPSSLSASVGDRVTITCSASISVSYLYWYQQKPGKAPKLLIYDDSSLASGVPSRFSGSGSGTDFTLTISSLQPEDFATYYCQQWSGYPYTFGQGTKVEIK
notes: as for B1
B15: anti-IL-6 antibody, heavy chain T63P, G66D / light chain M32L, M50D, N52S, M88Q (antibody, IgG1, V domains shown)
VH: EVQLVESGGGLVQPGGSLRLSCAASGFTFSPFAMSWVRQAPGKGLEWVAKISPGGSWTYYSDPVTDRFTFSLDTSKSTAYLQMNSLRAEDTAVYYCARQLWGYYALDIWGQGTLVTVSS
VL: DIQLTQSPSSLSASVGDRVTITCSASISVSYLYWYQQKPGKAPKLLIYDDSSLASGVPSRFSGSGSGTDFTLTISSLQPEDFATYYCQQWSGYPYTFGQGTKVEIK
notes: as for B1
B16: anti-IL-6 antibody, heavy chain T63R, G66D / light chain M32L, M50D, N52S, M88Q (antibody, IgG1, V domains shown)
VH: EVQLVESGGGLVQPGGSLRLSCAASGFTFSPFAMSWVRQAPGKGLEWVAKISPGGSWTYYSDRVTDRFTFSLDTSKSTAYLQMNSLRAEDTAVYYCARQLWGYYALDIWGQGTLVTVSS
VL: DIQLTQSPSSLSASVGDRVTITCSASISVSYLYWYQQKPGKAPKLLIYDDSSLASGVPSRFSGSGSGTDFTLTISSLQPEDFATYYCQQWSGYPYTFGQGTKVEIK
notes: as for B1
B17: anti-IL-6 antibody, heavy chain T63S, G66D / light chain M32L, M50D, N52S, M88Q (antibody, IgG1, V domains shown)
VH: EVQLVESGGGLVQPGGSLRLSCAASGFTFSPFAMSWVRQAPGKGLEWVAKISPGGSWTYYSDSVTDRFTFSLDTSKSTAYLQMNSLRAEDTAVYYCARQLWGYYALDIWGQGTLVTVSS
VL: DIQLTQSPSSLSASVGDRVTITCSASISVSYLYWYQQKPGKAPKLLIYDDSSLASGVPSRFSGSGSGTDFTLTISSLQPEDFATYYCQQWSGYPYTFGQGTKVEIK
notes: as for B1
B18: anti-IL-6 antibody, heavy chain T63V, G66D / light chain M32L, M50D, N52S, M88Q (antibody, IgG1, V domains shown)
VH: EVQLVESGGGLVQPGGSLRLSCAASGFTFSPFAMSWVRQAPGKGLEWVAKISPGGSWTYYSDVVTDRFTFSLDTSKSTAYLQMNSLRAEDTAVYYCARQLWGYYALDIWGQGTLVTVSS
VL: DIQLTQSPSSLSASVGDRVTITCSASISVSYLYWYQQKPGKAPKLLIYDDSSLASGVPSRFSGSGSGTDFTLTISSLQPEDFATYYCQQWSGYPYTFGQGTKVEIK
notes: as for B1
B19: anti-IL-6 antibody, heavy chain T63W, G66D / light chain M32L, M50D, N52S, M88Q (antibody, IgG1, V domains shown)
VH: EVQLVESGGGLVQPGGSLRLSCAASGFTFSPFAMSWVRQAPGKGLEWVAKISPGGSWTYYSDWVTDRFTFSLDTSKSTAYLQMNSLRAEDTAVYYCARQLWGYYALDIWGQGTLVTVSS
VL: DIQLTQSPSSLSASVGDRVTITCSASISVSYLYWYQQKPGKAPKLLIYDDSSLASGVPSRFSGSGSGTDFTLTISSLQPEDFATYYCQQWSGYPYTFGQGTKVEIK
notes: as for B1

biological target: T1, human IL-6 (human, UniProt P05231 30-212); assay: SPR Biacore, supernatant Ab on Protein A chip, 37 C
T1 construct: IL-6 flowed over captured antibodies
T1 sequence (P05231 30-212 limits assumed): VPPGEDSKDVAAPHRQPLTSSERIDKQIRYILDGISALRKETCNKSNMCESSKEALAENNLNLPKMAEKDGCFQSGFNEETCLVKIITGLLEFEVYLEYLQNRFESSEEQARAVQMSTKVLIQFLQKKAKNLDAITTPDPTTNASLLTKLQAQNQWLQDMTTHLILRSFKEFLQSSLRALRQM
Method: Antibodies were captured on a Protein A chip (GE) by injecting 1:20 cell supernatant dilutions at 10 μL/min for 60 seconds. […] The sensor chip was regenerated by a 60 seconds injection of 10 mM Glycine pH 1.7 at the flow rate of 50 μL/min. […] For this setup, 1 μg/mL of purified antibody was injected over a Protein A chip at 10 μL/min for 25 seconds. […] The sensor chip was regenerated by a 60 seconds injection of 10 mM Glycine pH 1.7 at flow rate of 50 μL/min. Data analysis for supernatant and purified samples were performed using BIAevaluation software (GE). All sensorgrams were double reference subtracted and fit using a 1:1 Langmuir binding model.

Row | Binder | Kd [nM] | koff [s⁻¹] | kon [M⁻¹ s⁻¹]
1 | B1 | 2.59 | 0.00243 | 942000
2 | B2 | 27.1 | 0.00548 | 202000
3 | B3 | 0.3 | 0.000626 | 2.09e+06
4 | B4 | 0.498 | 0.000711 | 1.43e+06
5 | B5 | 1.33 | 0.00137 | 1.03e+06
6 | B6 | 34.6 | 0.00591 | 171000
7 | B7 | 3.43 | 0.00404 | 1.18e+06
8 | B8 | 0.268 | 0.000458 | 1.7e+06
9 | B9 | 0.249 | 0.000413 | 1.66e+06
10 | B10 | 0.274 | 0.000459 | 1.67e+06
11 | B11 | 0.261 | 0.00045 | 1.73e+06
12 | B12 | 0.28 | 0.000481 | 1.72e+06
13 | B13 | 0.288 | 0.000446 | 1.55e+06
14 | B14 | 0.283 | 0.000454 | 1.6e+06
15 | B15 | 0.246 | 0.000419 | 1.7e+06
16 | B16 | 0.273 | 0.000526 | 1.92e+06
17 | B17 | 0.278 | 0.000499 | 1.8e+06
18 | B18 | 0.274 | 0.00043 | 1.57e+06
19 | B19 | 0.286 | 0.000449 | 1.57e+06
